Where two headings read alike, the source gives them in different places.
Tests used:
[1] = target: peptic-tryptic-pancreatinic digest of wheat gliadin
[2] = target: peptic-tryptic-pancreatinic digest of wheat gliadin; remark: listed apart in the source
[3] = target: peptic-tryptic-pancreatinic digest of wheat gliadin; remark: listed apart in the source

Substance “Combination (1:1) of pig intestinal extract and crude caricain (pool or library)” has a Protection Index (%) in RLL assay [1] of 92%.

With “Fraction 4 from CM Sephadex C-50 ion exchange chromatography of papaya latex (pool or library)” the Protection Index (%) in RLL assay [2] was 84%.

For “caricain (EC 3.4.22.30) (from UniProt P10056) (enzyme)”, the Protection offered against gliadin in RLL Assay [3] was 32.3%.

crude caricain (pool or library) showed a Protection Index (%) in RLL assay [1] of 71%.

Substance “pig intestinal enzyme extract (pool or library)” has a Protection Index (%) in RLL assay [1] of 61%.
